Measurements from patent US20090166224A1 (published 2009).

Experiments:
Assay in all cases: human serum on Con A/WGA/Jacalin column, lectin-specific displacer fraction, LC-MS/MS; grade = SEQUEST rank group (+ = ranks 1-5, ++++ = 16-20)
[1] = biological target: T1, INTER-ALPHA-TRYPSIN INHIBITOR HEAVY CHAIN H1 (human, UniProt P19827 35-672)
T1 construct: from human serum; also called ITH1
T1 sequence (looked up): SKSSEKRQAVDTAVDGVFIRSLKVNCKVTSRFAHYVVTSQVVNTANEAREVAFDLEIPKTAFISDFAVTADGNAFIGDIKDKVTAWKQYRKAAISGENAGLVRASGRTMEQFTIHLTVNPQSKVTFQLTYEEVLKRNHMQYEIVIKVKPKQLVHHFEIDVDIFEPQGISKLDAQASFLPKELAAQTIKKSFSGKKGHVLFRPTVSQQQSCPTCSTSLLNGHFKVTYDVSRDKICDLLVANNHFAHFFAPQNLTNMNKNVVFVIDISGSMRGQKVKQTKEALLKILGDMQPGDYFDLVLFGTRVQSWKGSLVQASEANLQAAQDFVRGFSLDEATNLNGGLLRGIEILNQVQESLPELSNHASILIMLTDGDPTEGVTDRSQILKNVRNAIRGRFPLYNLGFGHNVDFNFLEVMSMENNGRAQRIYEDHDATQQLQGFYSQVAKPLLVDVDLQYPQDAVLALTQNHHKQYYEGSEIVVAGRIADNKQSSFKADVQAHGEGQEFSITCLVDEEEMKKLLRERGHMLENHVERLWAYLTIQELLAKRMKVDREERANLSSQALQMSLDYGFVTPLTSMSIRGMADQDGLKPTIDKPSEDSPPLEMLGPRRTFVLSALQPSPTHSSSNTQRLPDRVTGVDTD

[2] = biological target: T2, CARBOXYPEPTIDASE N 83 KDA CHAIN (human, UniProt P22792 22-545)
T2 construct: from human serum; also called CBP8
T2 sequence (looked up): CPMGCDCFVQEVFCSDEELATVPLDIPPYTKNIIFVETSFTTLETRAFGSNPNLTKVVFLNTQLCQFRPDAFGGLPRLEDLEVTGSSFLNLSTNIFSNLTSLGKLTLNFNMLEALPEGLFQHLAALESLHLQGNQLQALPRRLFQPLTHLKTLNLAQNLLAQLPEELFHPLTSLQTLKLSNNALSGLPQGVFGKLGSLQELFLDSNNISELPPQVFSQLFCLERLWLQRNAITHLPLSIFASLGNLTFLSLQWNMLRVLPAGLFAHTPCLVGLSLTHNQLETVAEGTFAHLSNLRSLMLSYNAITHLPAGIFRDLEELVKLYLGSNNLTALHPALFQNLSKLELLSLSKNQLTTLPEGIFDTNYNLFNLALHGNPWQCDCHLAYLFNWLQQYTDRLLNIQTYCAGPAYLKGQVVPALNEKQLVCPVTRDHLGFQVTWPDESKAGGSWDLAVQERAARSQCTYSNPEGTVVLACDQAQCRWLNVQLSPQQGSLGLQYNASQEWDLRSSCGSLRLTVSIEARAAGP

[3] = biological target: T3, VITRONECTIN (human, UniProt P04004 20-478)
T3 construct: from human serum; also called VTNC
T3 sequence (P04004 20-478 limits assumed): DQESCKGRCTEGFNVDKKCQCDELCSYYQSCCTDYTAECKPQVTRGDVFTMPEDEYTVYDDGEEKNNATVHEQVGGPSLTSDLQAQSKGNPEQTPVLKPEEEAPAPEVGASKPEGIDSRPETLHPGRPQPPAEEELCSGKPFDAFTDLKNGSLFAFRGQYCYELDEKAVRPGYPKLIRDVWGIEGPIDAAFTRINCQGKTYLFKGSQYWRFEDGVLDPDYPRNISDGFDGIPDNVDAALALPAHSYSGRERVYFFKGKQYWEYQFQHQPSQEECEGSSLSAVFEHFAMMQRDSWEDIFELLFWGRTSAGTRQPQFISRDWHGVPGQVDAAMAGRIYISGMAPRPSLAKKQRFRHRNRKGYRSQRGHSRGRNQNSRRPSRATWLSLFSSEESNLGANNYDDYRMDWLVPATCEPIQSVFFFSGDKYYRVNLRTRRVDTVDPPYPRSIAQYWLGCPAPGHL

[4] = biological target: T4, IG MU CHAIN C REGION (human, UniProt P01871-1 1-453)
T4 construct: domain: C region; Polyclonal serum IgM, identified through its constant region; variable regions and light chains not defined
T4 heavy (looked up): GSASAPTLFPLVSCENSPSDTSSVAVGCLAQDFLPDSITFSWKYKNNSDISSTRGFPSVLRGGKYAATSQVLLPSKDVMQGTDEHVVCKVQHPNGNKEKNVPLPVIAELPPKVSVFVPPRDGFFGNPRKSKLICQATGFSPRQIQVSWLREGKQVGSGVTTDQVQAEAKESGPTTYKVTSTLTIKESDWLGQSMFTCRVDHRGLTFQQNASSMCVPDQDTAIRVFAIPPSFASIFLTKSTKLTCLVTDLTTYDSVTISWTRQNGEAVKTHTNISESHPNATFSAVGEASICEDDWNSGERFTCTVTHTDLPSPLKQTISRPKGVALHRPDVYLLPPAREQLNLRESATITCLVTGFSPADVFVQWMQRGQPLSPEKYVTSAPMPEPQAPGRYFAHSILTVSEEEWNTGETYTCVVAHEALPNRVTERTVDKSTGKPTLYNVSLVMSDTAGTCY

[5] = biological target: T5, HAPTOGLOBIN-RELATED PROTEIN (human, UniProt P00739 1-348, limits assumed)
T5 construct: from human serum; also called HPTR
T5 sequence (looked up): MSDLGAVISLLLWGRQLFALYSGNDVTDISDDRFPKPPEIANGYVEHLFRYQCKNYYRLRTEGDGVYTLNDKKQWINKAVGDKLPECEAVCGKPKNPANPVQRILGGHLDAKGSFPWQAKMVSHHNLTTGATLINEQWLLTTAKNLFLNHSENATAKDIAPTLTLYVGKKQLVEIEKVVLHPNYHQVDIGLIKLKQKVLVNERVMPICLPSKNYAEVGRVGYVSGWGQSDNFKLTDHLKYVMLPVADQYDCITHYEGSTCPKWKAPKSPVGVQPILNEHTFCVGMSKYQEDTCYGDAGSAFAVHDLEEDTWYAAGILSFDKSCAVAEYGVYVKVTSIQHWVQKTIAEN

B1: wheat germ agglutinin (WGA), agarose-bound (other, UniProt P10968 27-197, looked up)
chain: QRCGEQGSNMECPNNLCCSQYGYCGMGGDYCGKGCQNGACWTSKRCGSQAGGATCTNNQCCSQYGYCGFGAEYCGAGCQGGPCRADIKCGSQAGGKLCPNNLCCSQWGFCGLGSEFCGGGCQSGACSTDKPCGKDAGGRVCTNNYCCSKWGSCGIGPGYCGAGCQSGGCDG
modifications: immobilized on agarose
notes: Lectin; released with N-acetyl-glucosamine; Coated on the plate in the lectin ELISA
- SEQUEST ranking (relative abundance in the WGA displacement fraction) [1]: 11 to 15 rank
- SEQUEST ranking (relative abundance in the WGA displacement fraction) [2]: 6 to 10 rank
- SEQUEST ranking (relative abundance in the WGA displacement fraction) [3]: 6 to 10 rank
- SEQUEST ranking (relative abundance in the WGA displacement fraction) [4]: 6 to 10 rank
- SEQUEST ranking (relative abundance in the WGA displacement fraction) [5]: 1 to 5 rank
